Patent US20250270584A1 (University of California, published 2025)
One block for each binder: values may come before it.

Columns and labels:
GST-CaM7 = target: T1, GST-CaM7 (Arabidopsis thaliana, UniProt P59220 1-149); test: pull-down with CTD deletion variants
T1 construct: also called pGEX-CaM7

CaM7 (calmodulin 7) = target: T2, CaM7 (calmodulin 7) (Arabidopsis thaliana, UniProt P59220 1-149); test: IP-MS, anti-Flag IP of GLR3.3-3Flag from leaves of transgenic plants; co-enrichment, may be indirect
T2 construct: also called AT3G43810; pBudCE4.1-EF-1α-CaM7

3Flag-CaM7 = target: T3, 3Flag-CaM7 (Arabidopsis thaliana, UniProt P59220 1-149); test: Co-IP with anti-GFP agarose from transgenic plants expressing GLR3.3-EGFP and 3Flag-CaM7
T3 construct: also called p35S::Flag-CaM7

- binding result (GST-CaM7): no binding
B1: MBP-CD2 (other, not shown: large carriers)
chain: LYFVQIIRQLYKKPTDDAIARMDEKEESKHESKKRKIDGSMNDTSGSTRSRGFDRERSFNSVNPLD
notes: domain: CTD

- binding result (CaM7 (calmodulin 7)): binds
B2: GLR3.3-3Flag (receptor)
chain: EKPKVVKIGSIFSFDSVIGKVAKIAIDEAVKDVNSNPDILSGTKFSVSMQNSNCSGFMGMVEALRFMEKDIVGIIGPQCSVVAHMISHMANELRVPLLSFAVTDPVMSPLQFPYFIRTTQSDLYQMDAIASIVDFYGWKEVIAVFVDDDFGRNGVAALNDKLASRRLRITYKAGLHPDTAVNKNEIMNMLIKIMLLQPRIVVIHVYSELGFAVFKEAKYLGMMGNGYVWIATDWLSTNLDSSSPLPAERLETIQGVLVLRPHTPDSDFKREFFKRWRKMSGASLALNTYGLYAYDSVMLLARGLDKFFKDGGNISFSNHSMLNTLGKSGNLNLEAMTVFDGGEALLKDILGTRMVGLTGQLQFTPDRSRTRPAYDIINVAGTGVRQIGYWSNHSGLSTVLPELLYTKEKPNMSTSPKLKHVIWPGETFTKPRGWVFSNNGKELKIGVPLRVSYKEFVSQIRGTENMFKGFCIDVFTAAVNLLPYAVPVKFIPYGNGKENPSYTHMVEMITTGNFDGVVGDVAIVTNRTKIVDFTQPYAASGLVVVAPFKKLNSGAWAFLRPFNRLMWAVTGCCFLFVGIVVWILEHRTNDEFRGPPKRQCVTILWFSFSTMFFAHRENTVSTLGRLVLIIWLFVVLIINSSYTASLTSILTVQQLSSPIKGIESLRERDDPIGYQVGSFAESYLRNELNISESRLVPLGTPEAYAKALKDGPSKGGVAAIVDERPYVELFLSSNCAYRIVGQEFTKSGWGFAFPRDSPLAIDLSTAILELAENGDLQRIHDKWLMKNACTLENAELESDRLHLKSFWGLFLICGVACLLALFLYFVQIIRQLYKKPTDDAIARDQQQNHDSSSMRSTRLQRFLSLMDEKEESKHESKKRKIDGSMNDTSGSTRSRGFDRERSFNSVNPLD
notes: Bait of the IP-MS, expressed in the glr3.3/glr3.6 mutant background; also called p35S::GLR3.3-3Flag; not shown: C-terminal 3Flag tag of vector pCambia1300-3Flag

- binding result (3Flag-CaM7): binds
B3: GLR3.3-EGFP (receptor)
chain: B2 chain
notes: Used in the Co-IP with anti-GFP magnetic agarose; also called pGLR3.3::GLR3.3-EGFP; not shown: EGFP fusion partner
